# Values quoted from earlier work, collected in publication PMC5535775.
# Target: DIAPH1 FH1 (Homo sapiens) (UniProt O60610)
# Assay: NMR
# Chain of UniProt O60610 (O60610 580-767): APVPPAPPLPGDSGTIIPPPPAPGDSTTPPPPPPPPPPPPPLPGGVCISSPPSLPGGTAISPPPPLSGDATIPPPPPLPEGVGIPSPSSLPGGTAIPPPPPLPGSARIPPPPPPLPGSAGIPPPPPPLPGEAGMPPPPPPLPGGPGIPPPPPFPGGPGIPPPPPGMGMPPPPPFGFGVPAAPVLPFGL
substance,measurement,value
RAGE cytoplasmic domain (from UniProt Q15109),Kd,< 10 µM
